Here are results for three molecules from PMC5779224 (2017).

Where a chain is given by its changes, count along the chain named.

The target in test [1] is T1, AnkG 38–855 (AnkG MBD-AI-c protein; MBD + partial AI-c) (rat, UniProt O70511-1 38-855).
T1 chain: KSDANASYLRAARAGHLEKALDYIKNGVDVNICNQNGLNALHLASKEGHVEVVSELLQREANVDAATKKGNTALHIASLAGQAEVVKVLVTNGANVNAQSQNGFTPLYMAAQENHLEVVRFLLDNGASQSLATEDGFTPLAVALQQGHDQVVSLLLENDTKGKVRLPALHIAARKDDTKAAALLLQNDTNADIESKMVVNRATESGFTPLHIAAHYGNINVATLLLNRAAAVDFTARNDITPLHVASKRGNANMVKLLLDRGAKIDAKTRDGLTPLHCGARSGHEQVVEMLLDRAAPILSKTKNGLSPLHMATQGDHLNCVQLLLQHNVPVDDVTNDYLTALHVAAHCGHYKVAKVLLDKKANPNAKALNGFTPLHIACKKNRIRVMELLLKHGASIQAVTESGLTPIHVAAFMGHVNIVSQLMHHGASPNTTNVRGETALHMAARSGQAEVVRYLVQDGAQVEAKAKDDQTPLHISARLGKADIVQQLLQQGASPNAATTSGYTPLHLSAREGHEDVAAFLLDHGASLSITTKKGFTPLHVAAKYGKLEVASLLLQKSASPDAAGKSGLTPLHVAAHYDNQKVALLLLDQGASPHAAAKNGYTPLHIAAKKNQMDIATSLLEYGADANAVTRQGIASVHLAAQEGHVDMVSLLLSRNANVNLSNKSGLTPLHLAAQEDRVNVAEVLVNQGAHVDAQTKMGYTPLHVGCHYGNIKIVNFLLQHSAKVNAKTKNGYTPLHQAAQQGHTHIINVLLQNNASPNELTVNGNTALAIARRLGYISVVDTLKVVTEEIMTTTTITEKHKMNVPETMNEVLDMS
In words: ITC.

Test [2] addresses T2, AnkG_MBD 'site-2' mutant (Ile277Gln, Leu310Gln) (rat, UniProt O70511-1 38-855, Ile277Gln | Leu310Gln).
T2 sequence: T1 chain with I240Q, L273Q
In words: ITC.

The target in test [3] is T3, AnkG_MBD 'site-1' mutant (Phe141Gln, Phe164Gln) (rat).
T3 chain: T1 chain with F104Q, F137Q
In words: ITC. A general note: ITC needs no label: the signal is the heat of the interaction.

Test [4] concerns the target T1, AnkG 38–855 (AnkG MBD-AI-c protein; MBD …). In words: ITC; two sites.
Test [5] concerns the target T4, AnkB 28–847 (MBD + partial AI-c) (human, UniProt Q01484-2 28-847).
T4 chain: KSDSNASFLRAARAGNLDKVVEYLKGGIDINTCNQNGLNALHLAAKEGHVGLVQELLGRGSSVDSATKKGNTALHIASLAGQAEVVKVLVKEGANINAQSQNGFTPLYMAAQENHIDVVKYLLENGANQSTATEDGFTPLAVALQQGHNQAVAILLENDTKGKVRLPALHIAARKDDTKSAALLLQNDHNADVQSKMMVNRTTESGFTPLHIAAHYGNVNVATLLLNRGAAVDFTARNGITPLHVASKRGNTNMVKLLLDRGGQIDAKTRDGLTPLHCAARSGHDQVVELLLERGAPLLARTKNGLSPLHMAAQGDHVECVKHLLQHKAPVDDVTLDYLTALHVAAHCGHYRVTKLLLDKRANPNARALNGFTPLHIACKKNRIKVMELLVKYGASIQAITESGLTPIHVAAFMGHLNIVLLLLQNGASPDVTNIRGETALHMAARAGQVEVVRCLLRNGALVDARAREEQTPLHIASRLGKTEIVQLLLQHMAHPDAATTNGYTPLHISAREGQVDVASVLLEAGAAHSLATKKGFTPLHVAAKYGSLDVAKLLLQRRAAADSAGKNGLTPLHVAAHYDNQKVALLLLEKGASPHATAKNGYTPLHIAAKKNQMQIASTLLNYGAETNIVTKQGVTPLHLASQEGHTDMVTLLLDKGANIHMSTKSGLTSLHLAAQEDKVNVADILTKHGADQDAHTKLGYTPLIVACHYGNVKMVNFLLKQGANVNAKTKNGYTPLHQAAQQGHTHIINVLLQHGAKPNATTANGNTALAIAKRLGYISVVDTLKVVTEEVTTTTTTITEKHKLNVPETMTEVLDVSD
The test is described as follows: ITC.

Test [6] deals with T5, AnkB MBD 'site-2' mutant (Ile267Gln, Leu300Gln) (human, UniProt Q01484-2 28-847, Ile267Gln | Leu300Gln).
T5 sequence: T4 chain with I240Q, L273Q
In words: ITC.

B1: AnkG linker ΔAI-c (aa 861–920) (domain or fragment)
chain: KASAPEKLSDGEYISDGEEGEDAITGDTDKYLGPQDLKELGDDSLPAEGYVGFSLGARSA
B1: the Kd (usually the equilibrium constant for the complex coming apart) in test [1] is 1.6 µM; in test [2], 3.9 µM; in test [3] it was 2.6 µM.

B2: AnkG long linker (aa 837–920; AI-c + AI-b) (domain or fragment)
chain: TEKHKMNVPETMNEVLDMSDDEVGKASAPEKLSDGEYISDGEEGEDAITGDTDKYLGPQDLKELGDDSLPAEGYVGFSLGARSA
Take B2: in test [4], the Kd was roughly 3 µM.

B3: AnkB_AI-b (aa 865–896) (domain or fragment)
chain: EDLKELGDDSLPSSQFLDGMNYLRYSLEGGRS
With B3, the Kd in test [5] is 3.7 µM; in test [6], 8.5 µM.
